Earlier results as cited in patent publication US20240156960A1 (priority 2020, published 2024).
Like-named read-outs stand apart in the source and are kept apart here.

Legend:
OC43 S = OC43 S (Human coronavirus OC43, UniProt P36334); conditions: Protein + Epitope S, Unk
SARS-CoV2 S = SARS-CoV2 S (Severe acute respiratory syndrome coronavirus 2, UniProt P0DTC2); conditions: Protein + Epitope S, Unk
NL63 S = NL63 S (Human coronavirus NL63, UniProt Q6Q1S2); conditions: Protein + Epitope S, Unk
SARS-CoV1 S = SARS-CoV1 S (Severe acute respiratory syndrome coronavirus, UniProt P59594)
[1] = test system: SARS-CoV2, SARS-CoV1, NL63, 229E, HKU1, OC43
SARS-CoV2 S; RBD = SARS-CoV2 S; RBD (Severe acute respiratory syndrome coronavirus 2, UniProt P0DTC2); conditions: epitope S
SARS-CoV1 [2] = test system: SARS-CoV1
SARS-CoV1 [3] = test system: SARS-CoV1; remark: listed apart in the source
SARS-CoV2 = conditions: source Davide Robbiani et al., 2020
SARS-CoV1 [4] = test system: SARS-CoV1; remark: listed apart in the source

Sequence of NL63 S (Q6Q1S2 19-1356): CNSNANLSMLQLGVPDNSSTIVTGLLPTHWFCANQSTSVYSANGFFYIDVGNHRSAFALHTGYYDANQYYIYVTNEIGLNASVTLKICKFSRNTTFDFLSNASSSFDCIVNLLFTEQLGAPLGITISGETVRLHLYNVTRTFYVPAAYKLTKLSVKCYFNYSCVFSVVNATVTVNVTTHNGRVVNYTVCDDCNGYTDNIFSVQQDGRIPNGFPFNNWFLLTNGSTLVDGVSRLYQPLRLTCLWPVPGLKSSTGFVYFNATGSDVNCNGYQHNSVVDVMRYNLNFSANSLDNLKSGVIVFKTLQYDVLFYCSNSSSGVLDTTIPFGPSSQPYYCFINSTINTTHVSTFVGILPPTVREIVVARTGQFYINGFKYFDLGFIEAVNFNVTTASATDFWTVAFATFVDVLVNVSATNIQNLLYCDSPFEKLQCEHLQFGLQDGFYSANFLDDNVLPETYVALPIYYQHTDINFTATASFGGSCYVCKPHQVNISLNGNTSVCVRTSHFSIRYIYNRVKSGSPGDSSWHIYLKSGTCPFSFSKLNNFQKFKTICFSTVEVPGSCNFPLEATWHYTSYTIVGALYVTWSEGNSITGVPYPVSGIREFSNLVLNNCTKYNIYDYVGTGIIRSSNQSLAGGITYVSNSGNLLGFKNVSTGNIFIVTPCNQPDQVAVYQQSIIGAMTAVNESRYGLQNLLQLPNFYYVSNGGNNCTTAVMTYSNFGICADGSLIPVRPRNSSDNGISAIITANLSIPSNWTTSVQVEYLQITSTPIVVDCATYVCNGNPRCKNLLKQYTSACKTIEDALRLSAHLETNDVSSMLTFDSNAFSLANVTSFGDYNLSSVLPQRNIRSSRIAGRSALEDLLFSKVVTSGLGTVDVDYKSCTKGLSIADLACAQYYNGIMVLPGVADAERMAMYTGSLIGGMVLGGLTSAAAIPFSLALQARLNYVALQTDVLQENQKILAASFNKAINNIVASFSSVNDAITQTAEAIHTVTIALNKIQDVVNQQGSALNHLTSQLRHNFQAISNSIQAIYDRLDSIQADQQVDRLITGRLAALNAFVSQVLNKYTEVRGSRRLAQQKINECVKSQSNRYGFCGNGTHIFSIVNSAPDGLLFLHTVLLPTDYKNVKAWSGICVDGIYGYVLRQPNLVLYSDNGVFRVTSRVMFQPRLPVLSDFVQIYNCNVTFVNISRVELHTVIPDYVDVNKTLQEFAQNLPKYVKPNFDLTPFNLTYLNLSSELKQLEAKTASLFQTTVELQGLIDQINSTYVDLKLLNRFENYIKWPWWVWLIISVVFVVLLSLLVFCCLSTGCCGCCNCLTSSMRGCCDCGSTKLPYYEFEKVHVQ
Sequence of OC43 S (P36334 14-1353): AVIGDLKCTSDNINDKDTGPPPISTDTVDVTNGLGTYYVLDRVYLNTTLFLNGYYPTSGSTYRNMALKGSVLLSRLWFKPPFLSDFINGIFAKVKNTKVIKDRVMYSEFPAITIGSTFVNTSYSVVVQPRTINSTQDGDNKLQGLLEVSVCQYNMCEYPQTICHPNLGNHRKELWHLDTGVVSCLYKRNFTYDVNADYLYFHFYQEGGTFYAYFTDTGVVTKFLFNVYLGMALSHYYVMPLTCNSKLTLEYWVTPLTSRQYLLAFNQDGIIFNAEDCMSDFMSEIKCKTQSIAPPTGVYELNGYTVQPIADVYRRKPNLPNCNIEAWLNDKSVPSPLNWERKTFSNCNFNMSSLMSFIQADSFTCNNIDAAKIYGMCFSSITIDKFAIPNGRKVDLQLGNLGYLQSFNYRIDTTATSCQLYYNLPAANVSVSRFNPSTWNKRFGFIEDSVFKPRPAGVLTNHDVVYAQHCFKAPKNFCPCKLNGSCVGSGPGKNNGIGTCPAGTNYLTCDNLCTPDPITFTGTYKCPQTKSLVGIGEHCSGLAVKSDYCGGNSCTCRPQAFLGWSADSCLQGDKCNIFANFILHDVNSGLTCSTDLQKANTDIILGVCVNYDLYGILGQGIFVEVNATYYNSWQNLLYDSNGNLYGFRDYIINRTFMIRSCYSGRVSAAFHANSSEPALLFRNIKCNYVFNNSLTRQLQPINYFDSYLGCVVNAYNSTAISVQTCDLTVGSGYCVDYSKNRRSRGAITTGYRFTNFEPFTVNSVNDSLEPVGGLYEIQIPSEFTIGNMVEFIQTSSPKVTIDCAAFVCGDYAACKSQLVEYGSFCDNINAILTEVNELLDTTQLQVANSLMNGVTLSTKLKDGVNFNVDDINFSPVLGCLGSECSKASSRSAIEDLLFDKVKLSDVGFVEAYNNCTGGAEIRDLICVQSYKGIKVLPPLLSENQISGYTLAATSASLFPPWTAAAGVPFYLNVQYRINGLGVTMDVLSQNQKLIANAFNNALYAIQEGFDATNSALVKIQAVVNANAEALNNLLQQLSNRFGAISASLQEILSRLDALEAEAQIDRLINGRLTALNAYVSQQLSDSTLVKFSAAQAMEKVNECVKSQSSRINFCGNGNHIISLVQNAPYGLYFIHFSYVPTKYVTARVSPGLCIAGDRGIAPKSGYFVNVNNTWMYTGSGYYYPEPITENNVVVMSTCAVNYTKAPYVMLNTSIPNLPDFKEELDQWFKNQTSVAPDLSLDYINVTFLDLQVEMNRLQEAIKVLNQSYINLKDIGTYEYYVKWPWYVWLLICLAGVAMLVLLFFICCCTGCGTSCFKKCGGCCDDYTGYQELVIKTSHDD

B1: mAb-87 (antibody, listed as Homo sapiens, V domains shown)
VH: QVQLQESGPGLVKPSETLSLTCTVSGGSMNHYYWSWIRQPPGKGLEGIGYTYYSGSTNYNPSLKSRVTISVDASKNQFSLRLSSVTAADTAVYYCARGSQIDLRGGLGATFFDYWGQGTLVTVSS
VL: QSVLTQPASVSGSPGQSITISCTGTSSDVGAYNYVSWYQQHPGKAPKLTVYDVRNRPSGVSNRFSGSKSGNTASLTISGLQAEDEAHYYCSSYTSTNTVFGGGTKLTVL
Q: Which “Doesn't Bind to” value (OC43 S) does the source give for B1 here?
A: The value was “OC43,”.

Q: What about the “Binds to” value (SARS-CoV2 S) of the same molecule?
A: The value was “SARS-CoV2”.

Q: What about the “Doesn't Bind to” value (NL63 S) of the same molecule?
A: The value was “NL63,”.

Q: What about the “Doesn't Bind to” value (SARS-CoV1 S) of the same molecule?
A: Its value is “CoV1”.

B2: mBG21 (antibody, listed as Mus musculus, V domains shown)
VH: QIQLVQSGPELKKPGETVKISCKASGYTFTDYSMHWVKQAPGKGSKWMGWINTETGEPTYADDFKGRFAFSLETSASTAYLQINNLKNEDTATYFCALRRWGQGTLVTVSS
VL: IVMTQTPKFLLVSAGDRVTITCKASQSVSNDVAWFQQKPGQSPKKLLIYFASNRYTGVPDRFTGSGYGTDFTFTITTVQAEDLAVYFCQQDYSSPWTFGGGTKLEIK
Q: For B2, which “Binds to” value [1] is on record?
A: Its value is “NL63”.

B3: mBG57 (antibody, listed as Mus musculus, V domains shown)
VH: QIQLVQSGPELKKPGETVKISCKASGYTFTDYSMHWVKQAPGKGSKWMGWINTETGEPTYADDFKGRFAFSLETSASTAYLQINNLKNEDTATYFCALRRWGQGTLVTVSA
VL: DIVMTQAAPSEPVTPGESVSISCGSSKSLLHSNDNTYLYWFLQRPGQSPQLLIYRMSNLASGVPDRFTGSGSGTAFTLRISRVEAEDVGVYYCMQHLENPLGVRWRHQAGNQT
Q: With B3 as the molecule, how does the “Binds to” value [1] read?
A: Its value is “NL63”.

B4: mBG22 (antibody, listed as Mus musculus, V domains shown)
VH: QIQLVQSGPELKKPGETVKISCKASGYTFTDYSMHWVKQAPGKGSKWMGWINTETGEPTYADDFKGRFAFSLETSASTAYLQINNLKNEDTATYFCALRRWGQGTLVTVSA
VL: IVMTQTPKFLLVSAGDRVTITCKASQSVSNDVAWFQQKPGQSPKLLIYFASNRYTGVPDRFTGSGYGTDFTFTITTVQAEDLAVYFCQQDYSSPWTFGGGTKLEIK
Q: Which “Binds to” value [1] does the source give for B4 here?
A: Its value is “NL63”.

B5: C118 (antibody, listed as Homo sapiens, V domains shown)
VH: QVQLVESGGGVVQPGRSLRLSCAASGFTFSNYAMHWVRQAPGKGLEWVAVISYDGSNKYYADSVKGRFTISRDNSKNTLYLQMNSLRAEDTAIYYCASGYTGYDYFVRGDYYGLDVWGQGTTVTVSS
VL: QPVLTQSPSASASLGASVKLTCTLSSGHSSYAIAWHQQQPEKGPRYLMKLNTDGSHSKGDGIPDRFSGSSSGAERYLTISSLQSEDEADYYCQTWGTGILVFGGGTKLTVL
Q: With B5 as the molecule, how does the “Binds to” value (SARS-CoV2 S; RBD) read?
A: Its value is “SARS-CoV2”.

Q: And the “Binds to” value (SARS-CoV1 [2])?
A: Its value is “SARS-CoV1,”.

B6: mAb-88 (antibody, listed as Homo sapiens, V domains shown)
VH: QVQLVESGAEVKKPGSSVKISCKISGDTFSTNAISWLRQAPGREPEWMGGIVPLVGPASYAQRPQGRLTITADEFTNTAYLELNSLRSEDTATYYCARDSDPYTATRRHNHYWYAMDVWGQGTTVTVSS
VL: DIRLTQTPLSLPVTLGQPASISCRSSQIAMHSDGNTYLSWFHQRPGQPPRRLIYKISNRDSGVPDRFSGSGSGTDFTLKISRVEAEDIGTFYCMQGTDWPRTFGQGTKVDIK
Q: Which results are given for B6?
A: Doesn't Bind to (OC43 S): OC43,; Binds to (SARS-CoV2 S): SARS-CoV2; Doesn't Bind to (NL63 S): NL63,; Doesn't Bind to (SARS-CoV1 S): CoV1

B7: mAb-94 (antibody, listed as Homo sapiens, V domains shown)
VH: QVQLVQSGAEVKKPGSSVKVSCKASGGMFTDYAISWVRQAPGQRLEWMGGIMPGLGSPAYAQIFRDRATISADVSTSTAYLELTSLKPEDTAVYYCARDPSILNTGNHHWYDLDIWGQGTTVTVSS
VL: DIQLTQSPLSLPVGLGQSASISCRSSQRVVHTDGNTYLNWYHQRPGQSPRRLIYKVSNRDSGVPDRFSGSGSGTDFTLRISRVEAEDVGVYYCMQSTDWPRTFGQGTKLEIK
Q: For B7, which “Doesn't Bind to” value (OC43 S) is on record?
A: The value was “OC43,”.

Q: What about the “Binds to” value (SARS-CoV2 S) of the same molecule?
A: The value was “SARS-CoV2”.

Q: And the “Doesn't Bind to” value (NL63 S)?
A: The value was “NL63,”.

Q: What about the “Doesn't Bind to” value (SARS-CoV1 S) of the same molecule?
A: The value was “CoV1”.

B8: C126 (antibody, listed as Homo sapiens, V domains shown)
VH: QVQLQESGPGLVKPSETLSLSCAVSGGSIGSYFWSWIRQPPGKGLEWIGYLHYSGSTNYNPSLKSRVTISVDTSKNQFSLKLSSVTAADTAVYYCARLQWLRGAFDIWGQGTMVTVSS
VL: NFMLTQPHSVSESPGKTVTISCTGSSGSIASNYVQWYQQRPGSAPTTVINEDNQRPSGVPDRFSGSIDSSSNSASLTISGLKTEDEADYYCQSYDSSNLVFGGGTKLTVL
Q: With B8 as the molecule, how does the “Binds to” value (SARS-CoV2 S; RBD) read?
A: Its value is “SARS-CoV2”.

Q: What about the “Not Neutralising Vs” value (SARS-CoV1 [3]) of the same molecule?
A: The value was “SARS-CoV1,”.

B9: C022 (antibody, listed as Homo sapiens, V domains shown)
VH: QVQLQESGPGLVKPSETLSVTCTVSGGSISSSRYYWGWIRQPPGKGLEWIGSIYYSGSTYYNPSLKSRVTISVDTSKNQFSLKLSSVTAADTAVYYCARHAAAYYDRSGYYFIEYFQHWGQGTLVTVSS
VL: DIQMTQSPSTLSASVGDSVTITCRASQSISSWLAWYQQKPGKAPKLLIYKASSLESGVPSRFSGSGSGTEFTLTISSLQPDDFATYYCQQYNNYRYTFGQGTKLEIK
Q: With B9 as the molecule, how does the “Binds to” value (SARS-CoV2 S; RBD) read?
A: Its value is “SARS-CoV2”.

Q: And the “Binds to” value (SARS-CoV1 [2])?
A: Its value is “SARS-CoV1,”.

B10: C113 (antibody, listed as Homo sapiens, V domains shown)
VH: QVQLVESGGGVVQPGRSLRLSCAASGFTFSNFGMHWVRQAPGKGLEWVAVIWYDGSNKYYADSVKGRFTISRDNSKNTLYLQMNSLRAEDTAVYYCARGVNPDDILTGVDAFDIWGQGTMVTVSS
VL: DIQMTQSPSTLSASVGDRVTITCRASQSMSSWLAWYQQKPGNAPKLLIYKASSLESGVPSRFSGSGSGTEFTLTISSLQPDDFATYYCQQHNSSPLTFGGGTKVEIK
Q: Which “Binds to” value (SARS-CoV2 S; RBD) does the source give for B10 here?
A: The value was “SARS-CoV2”.

Q: What about the “Not Neutralising Vs” value (SARS-CoV1 [3]) of the same molecule?
A: The value was “SARS-CoV1,”.

B11: mBG67 (antibody, listed as Mus musculus, V domains shown)
VH: EVQLVESGGGLVQPGGSLKLSCAASGFTFSNYGMSWVRQTPDKRLELVATINRNGGSTYYLDSVKVRFTISRDNAKSTLFLQLSSLKSDDTAMYYCARIYDFDEDYFDVWGAGTTVTVSS
VL: QIVLTQSPAIMSASLGERVTMTCTASSSVSSSYLHWYQQKPGSSPKLWIYSTSNLASGVPARFSGSGSGTSYSLTISSMEAEDAATYYCLQYHRSPWTFGGGTKLEIK
Q: With B11 as the molecule, how does the “Binds to” value [1] read?
A: Its value is “NL63”.

B12: C128 (antibody, listed as Homo sapiens, V domains shown)
VH: EVQLLESGGGLVQPGGSLRLSCAASGFTFSTYAMSWVRQAPGKGLEWVSTITGSGRDTYYADSVKGRFTISRDNSKNTLFLQLNSLRAEDAAVYSCANHPLASGDDYYHYYMDVWGKGTTVTVSS
VL: EIVLTQSPGTLSLSPGERATLSCRASQSVNSRQLAWYQQKPGQAPRLLIYGASSRATGIPERFSGSGSGTDFTLTISRLESEDFAVYHCQQYGSSRALTFGGGTKVEIK
Q: What does the source list for B12?
A: Binds to (SARS-CoV2): SARS-CoV2; Not Neutralising Vs (SARS-CoV1 [4]): SARS-CoV1

B13: C116 (antibody, listed as Homo sapiens, V domains shown)
VH: QVQLVESGGGVVQPGRSLRLSCAASGFTYSTYAMHWVRQAPGKGLEWVAFISYDGSNKYYADSVKGRFTISRDNSKNTLYLQMNSLRAEDTAVYYCARDFYHNWFDPWGQGTLVTVSS
VL: NFMLTQPHSVSESPGKTVTISCTGSSGSIASNYVQWYQQRPGSAPTTVIYEDNQRPSGVPDRFSGSIDRSSNSASLTISGLKTEDEADYYCQSYDSGNHWVVFGGGTRLTVL
Q: Which “Binds to” value (SARS-CoV2 S; RBD) does the source give for B13 here?
A: Its value is “SARS-CoV2”.

Q: What about the “Not Neutralising Vs” value (SARS-CoV1 [3]) of the same molecule?
A: The value was “SARS-CoV1,”.

B14: C114 (antibody, listed as Homo sapiens, V domains shown)
VH: QVQLVESGGGLIQPGGSLKLSCVVSGFTVSKNYISWVRQAPGKGLEWVSVIFAGGSTFYADSVKGRFAISRDNSNNTLFLQMNSLRVEDTAIYYCARGDGELFFDQWGQGTLVTVSS
VL: QSVLTQPPSVSGAPGQRVTISCTGTSSNIGAGYDVHWYQQLPGRAPKVLISGNNIRPSEVPDRFSGSRSGTSASLAITSLQPEDEAQYYCQSYDSSLYAVFGGGTKLTVL
Q: For B14, which “Binds to” value (SARS-CoV2 S; RBD) is on record?
A: Its value is “SARS-CoV2”.

Q: What about the “Not Neutralising Vs” value (SARS-CoV1 [3]) of the same molecule?
A: The value was “SARS-CoV1,”.
